For orientation: EC50 means the concentration giving half of the maximal effect.

The text below walks through data of article PMC4440733 (PLoS ONE, 2015).

In one experiment the target is T1, His-tagged EGFR protein (Homo sapiens (species , human …, UniProt P00533)).
T1 construct: Epidermal growth factor receptor (EGFR); also called epidermal growth factor receptor; source: bought: Invitrogen
Description: ELISA; plates coated with anti-his antibody; His-tagged EGFR or ErbB3 captured in PBS with 1% BSA, 1 h RT; gradient-diluted antibodies or DVD-Ig proteins 1 h RT; detected with HRP-conjugated goat-anti-human antibodies. As to conditions: both partners purified.

A further experiment has as its target T2, His-tagged ErbB3 protein (Homo sapiens (species , human …, UniProt P21860)).
T2 construct: Receptor tyrosine-protein kinase ErbB3; also called receptor tyrosine-protein kinase 3; source: bought: Invitrogen
Described as above. As to conditions: both partners purified.

T2 sequence (P21860 20-643): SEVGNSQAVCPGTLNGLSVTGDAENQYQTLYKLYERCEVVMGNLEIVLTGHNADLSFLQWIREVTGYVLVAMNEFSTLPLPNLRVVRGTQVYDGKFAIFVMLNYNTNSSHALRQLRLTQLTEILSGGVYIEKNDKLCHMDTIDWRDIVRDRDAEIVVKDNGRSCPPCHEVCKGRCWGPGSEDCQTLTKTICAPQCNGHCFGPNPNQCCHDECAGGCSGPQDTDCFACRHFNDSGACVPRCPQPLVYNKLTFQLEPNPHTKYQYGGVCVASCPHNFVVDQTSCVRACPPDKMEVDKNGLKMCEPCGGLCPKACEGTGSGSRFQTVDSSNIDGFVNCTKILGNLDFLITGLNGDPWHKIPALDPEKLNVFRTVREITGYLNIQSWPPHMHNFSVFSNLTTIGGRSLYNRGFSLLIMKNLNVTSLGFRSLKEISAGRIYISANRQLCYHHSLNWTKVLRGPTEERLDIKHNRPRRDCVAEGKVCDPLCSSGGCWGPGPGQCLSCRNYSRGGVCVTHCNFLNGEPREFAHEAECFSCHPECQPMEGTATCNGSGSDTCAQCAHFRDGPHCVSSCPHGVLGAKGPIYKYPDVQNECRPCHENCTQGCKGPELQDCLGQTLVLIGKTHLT

B1: anti-EGFR/ErbB3 bispecific Ab (bsAb), generated from published MEHD7945A sequences (bispecific antibody, V domains shown)
VH: EVQLVESGGGLVQPGGSLRLSCAASGFTLSGDWIHWVRQAPGKGLEWVGEISAAGGYTDYADSVKGRFTISADTSKNTAYLQMNSLRAEDTAVYYCARESRVSFEAAMDYWGQGTLVTVSS
VL: DIQMTQSPSSLSASVGDRVTITCRASQNIATDVAWYQQKPGKAPKLLIYSASFLYSGVPSRFSGSGSGTDFTLTISSLQPEDFATYYCQQSEPEPYTFGQGTKVEIK
notes: also called anti-EGFR/ErbB3 bsAb; two-in-one antibody; source: human embryonic kidney 293 cells, transient, purified (protein A)
Take B1: the EC50 with His-tagged EGFR protein worked out at 1.3 nM; in the experiment with His-tagged ErbB3 protein, 5.7 nM.
